Here are results for 27 molecules from patent US8026218.

Bridge positions count the residues as written; N and C are the ends. Square brackets hold non-standard residues; d marks the D form. Primed or numbered codes have the meaning given here. Ends that are not written are not given here. * marks the point of attachment. NMeBn(CF3)2 = C-terminal N-methyl bis(trifluoromethyl)benzyl amide; O‑Bzl(CF3)2 = C-terminal bis(trifluoromethyl)benzyl ester; Glc = O-glucosyl on Ser side chain (Ser(OGlu)/Ser(OGlc)); NH(3,5-(CF3)2-benzyl) = FC(F)(F)c1cc(CN*)cc(C(F)(F)F)c1; OBzl(3,5-(CF3)2) = FC(F)(F)c1cc(CO*)cc(C(F)(F)F)c1; Glc″ = glucosyl on the serine side-chain oxygen; O‑Bzl(CF3)2(3) = C-terminal O-Bzl(CF3)2 ester; NH‑Bn(CF3)2 = C-terminal Bn(CF3)2 amide; OBn(OMe)2 = C-terminal OBn(OMe)2 ester; Dmt = Cc1cc(O)cc(C)c1C[C@H](N)C(=O)O; NMe(benzyl) = CN(Cc1ccccc1)*; Nle = CCCC[C@H](N)C(=O)O; Aib = CC(C)(N)C(=O)O; NHBn = c1ccc(CN*)cc1; OBn = c1ccc(CO*)cc1

To fix the notation:
B1: TyrDAlaGlyPheNleProLeuTrpOBn(CF3)2 (peptide)
peptide: YAGFXPLW
modifications: here or on the partner: D-Ala at 2; Nle at 5 (written X); C-terminal O-3,5-Bzl(CF3)2 ester
B2: TyrDCysGlyPheMetProLeuTrpOBn(CF3)2 (TY031) (peptide)
peptide: Y[dC]GFMPLW-{OBzl(3,5-(CF3)2)}
B3: TyrDAlaGlyPheMetProLeuTrpOBn(OMe)2 (TY030) (peptide)
peptide: Y[dA]GFMPLW-{OBn(OMe)2}
B4: TyrDAlaGlyPheMet(O)ProLeuTrpOBn(CF3)2 (peptide)
peptide: YAGFMPLW
modifications: here or on the partner: D-Ala at 2; Met(O) at 5; C-terminal O-3,5-Bzl(CF3)2 ester
B5: H-Tyr-D-Ala-Gly-Phe-Leu-Pro-Leu-Trp-O-3,5-Bzl(CF3)2 (peptide)
peptide: H-Y[dA]GFLPLW-{OBzl(3,5-(CF3)2)}
modifications: also: TFA salt
B6: TyrDAlaGlyPheNleProLeuSer(OGlu)TrpNHBn(CF3)2 (TY055) (peptide)
peptide: Y[dA]GF[Nle]PLS(Glc)W-{NH‑Bn(CF3)2}
B7: TyrDAlaGlyPheMet(O)ProLeuTrpOBn(CF3)2 (TY023) (peptide)
peptide: YAGFMPLW
modifications: here or on the partner: D-Ala at 2; Met(O) (oxidized methionine) at 5; C-terminal O-3,5-Bn(CF3)2 ester
B8: TyrDAlaGlyPheNleSer(OGlu)LeuTrpNHBn(CF3)2 (TY044) (peptide)
peptide: Y[dA]GF[Nle]S(Glc″)LW-{NH‑Bn(CF3)2}
B9: TyrDAlaGlyPheGlyProLeuTrpOBn(CF3)2 (TY006) (peptide)
peptide: Y[dA]GFGPLW-{OBzl(3,5-(CF3)2)}
B10: TyrDAlaGlyPheLeuProLeuTrpOBn(CF3)2 (peptide)
peptide: Y[dA]GFLPLW-{OBzl(3,5-(CF3)2)}
B11: TyrDAlaGlyPheNleProLeuTrpNHBn(CF3)2 (TY045) (peptide)
peptide: YAGFXPLW
modifications: here or on the partner: D-Ala at 2; Nle at 5 (X); C-terminal NH-Bn(CF3)2 amide
B12: H-Tyr-D-Ala-Gly-Phe-Gly-Pro-Leu-Trp-O-3,5-Bzl(CF3)2 (peptide)
peptide: H-Y[dA]GFGPLW-{OBzl(3,5-(CF3)2)}
modifications: also: TFA salt
B13: TyrDAlaGlyPheDPheProLeuTrpOBn(CF3)2 (peptide)
peptide: Y[dA]GF[dF]PLW-{OBzl(3,5-(CF3)2)}
B14: TyrDAlaGlyPheMetProLeuTrpOBn (TY029) (peptide)
peptide: Y[dA]GFMPLW-OBn
B15: TyrDAlaGlyPhePheProLeuTrpOBn(CF3)2 (peptide)
peptide: Y[dA]GFFPLW-{OBzl(3,5-(CF3)2)}
B16: TyrDAlaGlyPheDPheProLeuTrpOBn(CF3)2 (TY007) (peptide)
peptide: Y[dA]GF[dF]PLW-{OBzl(3,5-(CF3)2)}
B17: TyrDAlaGlyPheMetProLeuTrpOH (TY043) (peptide)
peptide: Y[dA]GFMPLW-OH
B18: TyrDAlaGlyPheMetProLeuTrpNMeBn (TY026) (peptide)
peptide: Y[dA]GFMPLW-{NMe(benzyl)}
B19: Tyr[DCysGlyPheDCys]ProLeuTrpNHBn(CF3)2 (TY037) (peptide)
peptide: Y[dC]GF[dC]PLW-{NH(3,5-(CF3)2-benzyl)}
modifications: disulfide 2-5
B20: TyrDAlaGlyPheNleProSer(OGlu)TrpNHBn(CF3)2 (peptide)
peptide: Y[dA]GF[Nle]PS(Glc)W-{NH(3,5-(CF3)2-benzyl)}
B21: DmtDAlaGlyPheMetProLeuTrpNHBn (TY034) (peptide)
peptide: [Dmt][dA]GFMPLW-NHBn
B22: TyrDAlaGlyPheSer(OGlu)ProLeuTrpNHBn(CF3)2 (peptide)
peptide: Y[dA]GFS(Glc)PLW-{NH(3,5-(CF3)2-benzyl)}
B23: TyrDAlaGlyPheMetProLeuTrpOBn(CF3)2 (TY005) (peptide)
peptide: Y[dA]GFMPLW-{OBzl(3,5-(CF3)2)}
B24: Tyr[DCysGlyPheNleProDCys]TrpNHBn(CF3)2 (peptide)
peptide: Y[dC]GF[Nle]P[dC]W-{NH(3,5-(CF3)2-benzyl)}
modifications: disulfide 2-7
B25: TyrDAlaGlyPheMetProLeuTrpNMeBn(CF3)2 (TY028) (peptide)
peptide: Y[dA]GFMPLW-{NMeBn(CF3)2}
B26: Tyr-DAla-Gly-Phe-Leu-Trp-O-Bzl(CF3)2 (NP37) (peptide)
peptide: Y[dA]GFLW-{O‑Bzl(CF3)2}
B27: Tyr-DAla-Gly-Phe-Aib-Trp-O-Bzl(CF3)2 (NP41) (peptide)
peptide: Y[dA]GF[Aib]W-{O‑Bzl(CF3)2(3)}

In one experiment the target is δ opioid receptor of the mouse isolated vas deferens (mouse), P32300. The experiment in a line: cell-based or functional assay.
δ opioid receptor of the mouse isolated vas deferens (mouse), P32300, sequence (P32300 whole entry, stated change not applied): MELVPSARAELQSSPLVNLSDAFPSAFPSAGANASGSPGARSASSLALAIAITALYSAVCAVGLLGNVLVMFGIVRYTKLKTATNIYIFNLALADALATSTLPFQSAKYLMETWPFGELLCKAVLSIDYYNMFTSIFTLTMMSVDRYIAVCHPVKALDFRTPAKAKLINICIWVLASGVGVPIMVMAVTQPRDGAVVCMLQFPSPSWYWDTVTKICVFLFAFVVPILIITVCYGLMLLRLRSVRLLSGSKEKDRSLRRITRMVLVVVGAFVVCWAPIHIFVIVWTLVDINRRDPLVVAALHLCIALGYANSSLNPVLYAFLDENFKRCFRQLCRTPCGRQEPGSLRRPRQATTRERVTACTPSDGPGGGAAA
In the case of B1, the MVD IC50 was found to be 16.8 nM.

B2 had an MVD opioid(delta) agonist IC50 of 235 nM.

Molecule B3 yielded an MVD opioid(delta) agonist IC50 of 12 nM.

In turn, B4 came in with an MVD IC50 of 33 nM.

On to B5, for which the MVD (δ) opioid agonist IC50 turned out to be 101 nM.

Molecule B6 yielded an MVD opioid(delta) agonist IC50 of 17.4 nM.

B7 came in with an MVD opioid(delta) agonist IC50 of 33 nM.

B8 came in with an MVD opioid(delta) agonist IC50 of 18 nM.

As to B9, the MVD opioid(delta) agonist IC50 amounted to 172 nM.

On to B10, for which the MVD IC50 is 101 nM.

In turn, B11 showed an MVD opioid(delta) agonist IC50 of 13.6 nM.

The molecule B12 showed an MVD (δ) opioid agonist IC50 of 172 nM.

B13: the MVD IC50 is 412 nM.

For B14, the MVD opioid(delta) agonist IC50 turned out to be 7.62 nM.

Consider B15, for which the MVD IC50 is 905 nM.

With B16, the MVD opioid(delta) agonist IC50 came out at 412 nM.

For B17, the MVD opioid(delta) agonist IC50 was determined as 8.18 nM.

Consider B18, for which the MVD opioid(delta) agonist IC50 stood at 7.89 nM.

As to B19, the MVD opioid(delta) agonist IC50 was found to be 8.28 nM.

B20 showed an MVD IC50 of 12.7 nM.

On to B21, for which the MVD opioid(delta) agonist IC50 was 6.85 nM.

For B22, the MVD IC50 came out at 109 nM.

For B23, the MVD opioid(delta) agonist IC50 was determined as 22.3 nM.

For the molecule B24, the MVD (δ) IC50 was found to be 19 nM.

The molecule B25 registered an MVD opioid(delta) agonist IC50 of 11.2 nM.

A further experiment deals with δ opioid receptor of the mouse isolated vas deferens (mouse) (UniProt P32300). The experiment in a line: cell-based or functional assay.
δ opioid receptor of the mouse isolated vas deferens (mouse), sequence (P32300 whole entry, stated change not applied): as above
As for B26, the MVD δ-agonist IC50 amounted to 25.7 nM.

B27: the MVD δ-agonist IC50 is 36.2 nM.
